# According to patent publication US20260167693A1 (ANGELES THERAPEUTICS, published 2026):
# T1: human CD19 (human, UniProt P15391 20-556)
# T1 sequence (looked up): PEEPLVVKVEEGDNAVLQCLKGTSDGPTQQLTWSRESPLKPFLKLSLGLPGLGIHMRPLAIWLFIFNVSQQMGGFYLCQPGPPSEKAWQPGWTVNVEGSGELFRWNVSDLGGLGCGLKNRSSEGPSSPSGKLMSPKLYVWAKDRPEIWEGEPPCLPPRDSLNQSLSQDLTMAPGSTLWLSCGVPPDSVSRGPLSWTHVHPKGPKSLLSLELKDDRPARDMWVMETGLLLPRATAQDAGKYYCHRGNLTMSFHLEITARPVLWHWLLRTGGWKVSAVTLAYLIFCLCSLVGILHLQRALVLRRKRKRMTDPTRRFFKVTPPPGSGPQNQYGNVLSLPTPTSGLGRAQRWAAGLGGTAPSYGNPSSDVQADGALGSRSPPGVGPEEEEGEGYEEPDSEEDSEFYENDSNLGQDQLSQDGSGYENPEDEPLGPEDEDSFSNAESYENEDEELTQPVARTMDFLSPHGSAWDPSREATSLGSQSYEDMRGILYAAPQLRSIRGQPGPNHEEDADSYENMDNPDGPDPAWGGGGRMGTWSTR
# T2: CD19-ECD-GGSG-NLuc-AcV5 (human)
# T2 construct: also called CD19-GGSG-NLuc-AcV5; Flag-CD19-GGSG-NLuc-AcV5
# T2 chain: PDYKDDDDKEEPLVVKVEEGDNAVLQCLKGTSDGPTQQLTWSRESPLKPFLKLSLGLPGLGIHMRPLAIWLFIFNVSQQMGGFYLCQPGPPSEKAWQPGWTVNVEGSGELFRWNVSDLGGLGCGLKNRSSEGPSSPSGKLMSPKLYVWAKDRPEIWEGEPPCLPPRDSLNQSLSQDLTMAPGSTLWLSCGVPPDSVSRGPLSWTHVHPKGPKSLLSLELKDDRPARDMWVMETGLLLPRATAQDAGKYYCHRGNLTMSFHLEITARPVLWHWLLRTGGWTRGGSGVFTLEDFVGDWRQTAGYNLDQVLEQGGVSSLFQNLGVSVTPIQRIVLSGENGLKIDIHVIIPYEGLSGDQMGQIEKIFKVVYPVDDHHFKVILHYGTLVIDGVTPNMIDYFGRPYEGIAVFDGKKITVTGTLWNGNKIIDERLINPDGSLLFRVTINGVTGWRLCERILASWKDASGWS
# Target: T1, human CD19
# Assay: cell-based or functional assay
row,NFAT-GFP (%) after overnight co-culture with RAJI cells,Binder
1,52.4%,CD8SP-CD19-hu-mROO5-vL-[hTCRa-CSDVP]-F-F2A-SP-CD19-hu-mROO5-vH-[hTCRb-KACIAH]-F-P2A-PAC (other) TCR alpha: DIQMTQSPSSLSASVGDRVTITCKASDHINNWLAWYQQKPGQAPKLLIYGATTLETGVPSRFSGSGSGTDYTLTISSLQPEDFATYYCQQSWNTPWTFGQGTKLEIKRIQNPDPAVYQLRDSKSSDKSVCLFTDFDSQTNVSQSKDSDVYITDKCVLDMRSMDFKSNSAVAWSNKSDFACANAFNNSIIPEDTFFPSSDVPCDVKLVEKSFETDTNLNFQNLSVIGFRILLLKVAGFNLLMTLRLWSS TCR beta: QVQLQQPGAELVKPGASVKMSCKASGYAFSSYWINWMKQKPGQGLEWIGQIYPGDGDTNYNGKFKGRATLTADTSSSTAYMQLSSLTSEDSAVYFCARSITTVVGCAMDYWGQGTSVTVSSEDLKNVFPPEVAVFEPSKAEIAHTQKATLVCLATGFYPDHVELSWWVNGKEVHSGVCTDPQPLKEQPALNDSRYCLSSRLRVSATFWQNPRNHFRCQVQFYGLSENDEWTQDRAKPVTQIVSAEAWGRADCGITSASYHQGVLSATILYEILLGKATLYAVLVSALVLMAMVKRKDSRG
2,4.49%,CD8SP-CD19Bu12-vL-V5-[hTCRb-WT]-F-P2A-CD19Bu12-vH-Myc-[hTCRa-WT]-F-F2A-PAC (other) TCR beta: EIVLTQSPATLSLSPGERATLSCSASSSVSYMHWYQQKPGQAPRLLIYDTSKLASGIPARFSGSGSGTDFTLTISSLEPEDVAVYYCFQGSVYPFTFGQGTKLEIKRGKPIPNPLLGLDSTGSGEDLKNVFPPEVAVFEPSEAEISHTQKATLVCLATGFYPDHVELSWWVNGKEVHSGVSTDPQPLKEQPALNDSRYCLSSRLRVSATFWQNPRNHFRCQVQFYGLSENDEWTQDRAKPVTQIVSAEAWGRADCGFTSESYQQGVLSATILYEILLGKATLYAVLVSALVLMAMVKRKDSRG TCR alpha: QVQLQESGPGLVKPSQTLSLTCTVSGGSISTSGMGVGWIRQHPGKGLEWIGHIWWDDDKRYNPALKSRVTISVDTSKNQFSLKLSSVTAADTAVYYCARMELWSYYFDYWGQGTLVTVSSEQKLISEEDGSGIQNPDPAVYQLRDSKSSDKSVCLFTDFDSQTNVSQSKDSDVYITDKTVLDMRSMDFKSNSAVAWSNKSDFACANAFNNSIIPEDTFFPSPESSCDVKLVEKSFETDTNLNFQNLSVIGFRILLLKVAGFNLLMTLRLWSS

# Target: T2, CD19-ECD-GGSG-NLuc-AcV5
# Assay: NLuc binding assay, SIR on Jurkat-NFAT-GFP cells
row,CD19-GGSG-NLuc (RLU),Binder
1,53700 RLU,"CD8SP-FMC63-vL-PG4SP-v2-[hTCRb-KACIAH]-F-P2A-SP-FMC63-vH-PG4SP-[hTCRa-CSDVP]-F-F2A-PAC (other, Polyprotein PRT 12433; also called 040617-A09) TCR beta: DIQMTQTTSSLSASLGDRVTISCRASQDISKYLNWYQQKPDGTVKLLIYHTSRLHSGVPSRFSGSGSGTDYSLTISNLEQEDIATYFCQQGNTLPYTFGGGTKLEITPGGGGSPEDLKNVFPPEVAVFEPSKAEIAHTQKATLVCLATGFYPDHVELSWWVNGKEVHSGVCTDPQPLKEQPALNDSRYCLSSRLRVSATFWQNPRNHFRCQVQFYGLSENDEWTQDRAKPVTQIVSAEAWGRADCGITSASYHQGVLSATILYEILLGKATLYAVLVSALVLMAMVKRKDSRG TCR alpha: EVKLQESGPGLVAPSQSLSVTCTVSGVSLPDYGVSWIRQPPRKGLEWLGVIWGSETTYYNSALKSRLTIIKDNSKSQVFLKMNSLQTDDTAIYYCAKHYYYGGSYAMDYWGQGTSVTVSSPGGGGSPIQNPDPAVYQLRDSKSSDKSVCLFTDFDSQTNVSQSKDSDVYITDKCVLDMRSMDFKSNSAVAWSNKSDFACANAFNNSIIPEDTFFPSSDVPCDVKLVEKSFETDTNLNFQNLSVIGFRILLLKVAGFNLLMTLRLWSS"
2,68500 RLU,"CD8SP-FMC63-vL-EAAAK-[hTCRb-KACIAH]-F-P2A-SP-FMC63-vH-EAAAK-v2-[hTCRa-CSDVP]-F-F2A-PAC (other, Polyprotein PRT 12435; also called 040617-C09) TCR beta: DIQMTQTTSSLSASLGDRVTISCRASQDISKYLNWYQQKPDGTVKLLIYHTSRLHSGVPSRFSGSGSGTDYSLTISNLEQEDIATYFCQQGNTLPYTFGGGTKLEITEAAAKEDLKNVFPPEVAVFEPSKAEIAHTQKATLVCLATGFYPDHVELSWWVNGKEVHSGVCTDPQPLKEQPALNDSRYCLSSRLRVSATFWQNPRNHFRCQVQFYGLSENDEWTQDRAKPVTQIVSAEAWGRADCGITSASYHQGVLSATILYEILLGKATLYAVLVSALVLMAMVKRKDSRG TCR alpha: EVKLQESGPGLVAPSQSLSVTCTVSGVSLPDYGVSWIRQPPRKGLEWLGVIWGSETTYYNSALKSRLTIIKDNSKSQVFLKMNSLQTDDTAIYYCAKHYYYGGSYAMDYWGQGTSVTVSSEAAAKIQNPDPAVYQLRDSKSSDKSVCLFTDFDSQTNVSQSKDSDVYITDKCVLDMRSMDFKSNSAVAWSNKSDFACANAFNNSIIPEDTFFPSSDVPCDVKLVEKSFETDTNLNFQNLSVIGFRILLLKVAGFNLLMTLRLWSS"
3,17200 RLU,"CD8SP-FMC63-vL-GSG-hTCRb-RAC-F-P2A-SP-FMC63-vH-Myc-[hTCRa-CSDVP]-F-F2A-PAC (other, Polyprotein PRT 12447; also called 121516-W05) TCR beta: DIQMTQTTSSLSASLGDRVTISCRASQDISKYLNWYQQKPDGTVKLLIYHTSRLHSGVPSRFSGSGSGTDYSLTISNLEQEDIATYFCQQGNTLPYTFGGGTKLEITGSGEDLKNVFPPEVAVFEPSRAEIAHTQKATLVCLATGFYPDHVELSWWVNGKEVHSGVCTDPQPLKEQPALNDSRYCLSSRLRVSATFWQNPRNHFRCQVQFYGLSENDEWTQDRAKPVTQIVSAEAWGRADCGFTSESYQQGVLSATILYEILLGKATLYAVLVSALVLMAMVKRKDSRG TCR alpha: EVKLQESGPGLVAPSQSLSVTCTVSGVSLPDYGVSWIRQPPRKGLEWLGVIWGSETTYYNSALKSRLTIIKDNSKSQVFLKMNSLQTDDTAIYYCAKHYYYGGSYAMDYWGQGTSVTVSSEQKLISEEDGSGIQNPDPAVYQLRDSKSSDKSVCLFTDFDSQTNVSQSKDSDVYITDKCVLDMRSMDFKSNSAVAWSNKSDFACANAFNNSIIPEDTFFPSSDVPCDVKLVEKSFETDTNLNFQNLSVIGFRILLLKVAGFNLLMTLRLWSS"

# More lines, now with the values behind:
row,Binder,CD19-GGSG-NLuc (RLU)
1,"CD8SP-FMC63-vL-[hTCRb-RC]-F-P2A-SP-FMC63-vH-[hTCRa-CSDVP]-F-F2A-PAC (other, Polyprotein PRT 12445; also called 121516-U07) TCR beta: DIQMTQTTSSLSASLGDRVTISCRASQDISKYLNWYQQKPDGTVKLLIYHTSRLHSGVPSRFSGSGSGTDYSLTISNLEQEDIATYFCQQGNTLPYTFGGGTKLEITEDLKNVFPPEVAVFEPSRAEISHTQKATLVCLATGFYPDHVELSWWVNGKEVHSGVCTDPQPLKEQPALNDSRYCLSSRLRVSATFWQNPRNHFRCQVQFYGLSENDEWTQDRAKPVTQIVSAEAWGRADCGFTSESYQQGVLSATILYEILLGKATLYAVLVSALVLMAMVKRKDSRG TCR alpha: EVKLQESGPGLVAPSQSLSVTCTVSGVSLPDYGVSWIRQPPRKGLEWLGVIWGSETTYYNSALKSRLTIIKDNSKSQVFLKMNSLQTDDTAIYYCAKHYYYGGSYAMDYWGQGTSVTVSSIQNPDPAVYQLRDSKSSDKSVCLFTDFDSQTNVSQSKDSDVYITDKCVLDMRSMDFKSNSAVAWSNKSDFACANAFNNSIIPEDTFFPSSDVPCDVKLVEKSFETDTNLNFQNLSVIGFRILLLKVAGFNLLMTLRLWSS",12600 RLU
2,"CD8SP-FMC63-vL-[hTCRb-KACIAH]-F-P2A-SP-FMC63-vH-[hTCRa-CSDVP]-F-F2A-PAC (other, Polyprotein PRT 12468; also called 022217-E01) TCR beta: DIQMTQTTSSLSASLGDRVTISCRASQDISKYLNWYQQKPDGTVKLLIYHTSRLHSGVPSRFSGSGSGTDYSLTISNLEQEDIATYFCQQGNTLPYTFGGGTKLEITEDLKNVFPPEVAVFEPSKAEIAHTQKATLVCLATGFYPDHVELSWWVNGKEVHSGVCTDPQPLKEQPALNDSRYCLSSRLRVSATFWQNPRNHFRCQVQFYGLSENDEWTQDRAKPVTQIVSAEAWGRADCGITSASYHQGVLSATILYEILLGKATLYAVLVSALVLMAMVKRKDSRG TCR alpha: EVKLQESGPGLVAPSQSLSVTCTVSGVSLPDYGVSWIRQPPRKGLEWLGVIWGSETTYYNSALKSRLTIIKDNSKSQVFLKMNSLQTDDTAIYYCAKHYYYGGSYAMDYWGQGTSVTVSSIQNPDPAVYQLRDSKSSDKSVCLFTDFDSQTNVSQSKDSDVYITDKCVLDMRSMDFKSNSAVAWSNKSDFACANAFNNSIIPEDTFFPSSDVPCDVKLVEKSFETDTNLNFQNLSVIGFRILLLKVAGFNLLMTLRLWSS",9760 RLU
3,"CD8SP-FMC63-vL-E-Coil-[hTCRb-KACIAH]-F-P2A-SP-FMC63-vH-K-coil-[hTCRa-CSDVP]-F-F2A-PAC (other, Polyprotein PRT 12434; also called 040617-B09) TCR beta: DIQMTQTTSSLSASLGDRVTISCRASQDISKYLNWYQQKPDGTVKLLIYHTSRLHSGVPSRFSGSGSGTDYSLTISNLEQEDIATYFCQQGNTLPYTFGGGTKLEITEVAALEREDLKNVFPPEVAVFEPSKAEIAHTQKATLVCLATGFYPDHVELSWWVNGKEVHSGVCTDPQPLKEQPALNDSRYCLSSRLRVSATFWQNPRNHFRCQVQFYGLSENDEWTQDRAKPVTQIVSAEAWGRADCGITSASYHQGVLSATILYEILLGKATLYAVLVSALVLMAMVKRKDSRG TCR alpha: EVKLQESGPGLVAPSQSLSVTCTVSGVSLPDYGVSWIRQPPRKGLEWLGVIWGSETTYYNSALKSRLTIIKDNSKSQVFLKMNSLQTDDTAIYYCAKHYYYGGSYAMDYWGQGTSVTVSSRVAALKEIQNPDPAVYQLRDSKSSDKSVCLFTDFDSQTNVSQSKDSDVYITDKCVLDMRSMDFKSNSAVAWSNKSDFACANAFNNSIIPEDTFFPSSDVPCDVKLVEKSFETDTNLNFQNLSVIGFRILLLKVAGFNLLMTLRLWSS",35700 RLU
4,"CD8SP-FMC63-vL-[hTCRa-CSDVP]-F-F2A-SP-FMC63-vH-[hTCRb-KACIAH]-F-P2A-PAC (other, Polyprotein PRT 12469; also called 022217-F01) TCR alpha: DIQMTQTTSSLSASLGDRVTISCRASQDISKYLNWYQQKPDGTVKLLIYHTSRLHSGVPSRFSGSGSGTDYSLTISNLEQEDIATYFCQQGNTLPYTFGGGTKLEITIQNPDPAVYQLRDSKSSDKSVCLFTDFDSQTNVSQSKDSDVYITDKCVLDMRSMDFKSNSAVAWSNKSDFACANAFNNSIIPEDTFFPSSDVPCDVKLVEKSFETDTNLNFQNLSVIGFRILLLKVAGFNLLMTLRLWSS TCR beta: EVKLQESGPGLVAPSQSLSVTCTVSGVSLPDYGVSWIRQPPRKGLEWLGVIWGSETTYYNSALKSRLTIIKDNSKSQVFLKMNSLQTDDTAIYYCAKHYYYGGSYAMDYWGQGTSVTVSSEDLKNVFPPEVAVFEPSKAEIAHTQKATLVCLATGFYPDHVELSWWVNGKEVHSGVCTDPQPLKEQPALNDSRYCLSSRLRVSATFWQNPRNHFRCQVQFYGLSENDEWTQDRAKPVTQIVSAEAWGRADCGITSASYHQGVLSATILYEILLGKATLYAVLVSALVLMAMVKRKDSRG",21300 RLU
